{"source": "patent US20210317499A1", "biological_target": "His-tagged FcγRIIIa recombinant protein (UniProt P08637)", "sequence (P08637 17-208 limits assumed)": "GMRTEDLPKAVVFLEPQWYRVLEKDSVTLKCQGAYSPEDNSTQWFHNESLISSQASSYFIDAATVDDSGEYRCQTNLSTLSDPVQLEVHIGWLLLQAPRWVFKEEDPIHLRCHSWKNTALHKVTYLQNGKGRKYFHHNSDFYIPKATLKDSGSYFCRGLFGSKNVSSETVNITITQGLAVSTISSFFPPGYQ", "assay": "SPR (Biacore X100); His-tagged FcγRIIIa captured on anti-His antibody CM5 chip, antibody as analyte; 1:1 Langmuir fit", "data": [{"substance": "GAZYVA (obinutuzumab), commercial afucosylated anti-CD20 antibody", "values": [{"measurement": "Kd", "value": 39.9, "unit": "nM"}, {"measurement": "koff", "value": 0.0069, "unit": "s⁻¹"}, {"measurement": "kon", "value": 173000, "unit": "M⁻¹ s⁻¹"}]}]}
